Test results reported in publication PMC3771946.

Key:
Test in all cases: co-IP
[1] = molecular target: Cx43-Y230H+F268A+Y286H-GFP (S1+2+3) (rat) (UniProt P08050)
[2] = molecular target: Cx43-Y230H+ΔY265AY+ΔP283PGYKLV-GFP (S1+2+3) (rat) (UniProt P08050)
[3] = molecular target: untagged Cx43-Y230H+ΔY265AY+ΔP283PGYKLV (S1+2+3) (rat) (UniProt P08050)
[4] = molecular target: untagged Cx43-ΔY265AY+ΔP283PGYKLV (S2+3) (rat) (UniProt P08050)
[5] = molecular target: Cx43-ΔY265AY+ΔP283PGYKLV-GFP (S2+3) (rat) (UniProt P08050)
[6] = molecular target: untagged Cx43-F268A+Y286H (S2+3) (rat) (UniProt P08050)
[7] = molecular target: untagged Cx43-Y230H+F268A+Y286H (S1+2+3) (rat) (UniProt P08050)
[8] = molecular target: Cx43-F268A+Y286H-GFP (S2+3) (rat) (UniProt P08050)

Measured: amount coprecipitated, % of wild type, with m16 (% of wild type)

clathrin (from UniProt Q00610 1-1675) (complex)
< 10: all assays above
